Experimental data taken from PMC7703929, “Unraveling the mechanism of recognition of the 3’ splice site of the adenovirus major late promoter intron by the alternative splicing factor PUF60”.

Columns and labels:
SF1 1-260 = target: T1, SF1 1-260 (human, UniProt Q15637 1-260, C171A); assay: EMSA; SF1 up to 40 uM, RNA 5 uM; FA: 50 mM Tris-HCl, 150 mM NaCl, 20 uM EDTA, pH 8.0, room temperature, 10 nM probe; EMSA: same buffer, 5 uM RNA, 5.5% native gel in 0.5X TBE at 4 C; crystals: 0.1 M Tris-HCl pH 8.7, 25% PEG 4000, 5-10 mM BaCl2, 20 C; settings: protein: recombinant; tags: His tag removed by TEV; N-terminal G left
T1 sequence: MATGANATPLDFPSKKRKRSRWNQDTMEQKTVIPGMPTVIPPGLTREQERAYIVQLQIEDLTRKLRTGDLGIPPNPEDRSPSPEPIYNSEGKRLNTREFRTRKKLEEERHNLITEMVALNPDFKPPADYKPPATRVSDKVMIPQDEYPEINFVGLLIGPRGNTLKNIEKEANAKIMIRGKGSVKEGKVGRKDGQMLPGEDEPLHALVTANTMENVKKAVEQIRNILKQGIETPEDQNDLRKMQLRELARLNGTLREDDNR

PUF60 RRMs+UHM [1] = target: T2, PUF60 RRMs+UHM (human, UniProt Q9UHX1 118-559, C129S;C255A;C487A); assay: EMSA; two conformations at 20 uM PUF60; RNA 5 uM; FA: 50 mM Tris-HCl, 150 mM NaCl, 20 uM EDTA, pH 8.0, room temperature, 10 nM probe; EMSA: same buffer, 5 uM RNA, 5.5% native gel in 0.5X TBE at 4 C; crystals: 0.1 M Tris-HCl pH 8.7, 25% PEG 4000, 5-10 mM BaCl2, 20 C; settings: protein: recombinant; tags: His tag removed by TEV; N-terminal GRGS left; chain copies: 2
T2 sequence (Q9UHX1 118-559 C129S/C255A/C487A): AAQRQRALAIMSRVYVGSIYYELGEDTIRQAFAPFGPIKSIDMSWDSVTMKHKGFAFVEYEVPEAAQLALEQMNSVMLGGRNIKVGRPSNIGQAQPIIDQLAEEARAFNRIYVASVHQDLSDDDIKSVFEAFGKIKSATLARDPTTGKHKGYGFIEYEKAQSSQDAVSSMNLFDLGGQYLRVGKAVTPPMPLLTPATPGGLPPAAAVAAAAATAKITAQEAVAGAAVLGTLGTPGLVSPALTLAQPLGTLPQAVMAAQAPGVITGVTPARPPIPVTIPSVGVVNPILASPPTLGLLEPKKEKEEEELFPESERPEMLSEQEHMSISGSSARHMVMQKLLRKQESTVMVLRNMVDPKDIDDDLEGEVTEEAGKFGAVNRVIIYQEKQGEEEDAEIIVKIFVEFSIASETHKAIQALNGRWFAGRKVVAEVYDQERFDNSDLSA

PUF60 RRMs+UHM;SF1 1-260 = PUF60 RRMs+UHM;SF1 1-260 (human;human, UniProt Q9UHX1;Q15637 118-559;1-260, C129S;C255A;C487A|C171A); assay: EMSA; further upward shift with both proteins, suggests ternary complex; FA: 50 mM Tris-HCl, 150 mM NaCl, 20 uM EDTA, pH 8.0, room temperature, 10 nM probe; EMSA: same buffer, 5 uM RNA, 5.5% native gel in 0.5X TBE at 4 C; crystals: 0.1 M Tris-HCl pH 8.7, 25% PEG 4000, 5-10 mM BaCl2, 20 C; settings: protein: recombinant;recombinant; tags: His tag removed by TEV; N-terminal GRGS left;His tag removed by TEV; N-terminal G left; chain copies: 2;1
Chain of PUF60 RRMs+UHM;SF1 1-260 (Q9UHX1 118-559 C129S/C255A/C487A, one chain of several): as the sequence (Q9UHX1 118-559 C129S/C255A/C487A) above

PUF60 RRMs+UHM [2] = target: T2, PUF60 RRMs+UHM; assay: fluorescence anisotropy; Kd1, two-site sequential model; FA: 50 mM Tris-HCl, 150 mM NaCl, 20 uM EDTA, pH 8.0, room temperature, 10 nM probe; EMSA: same buffer, 5 uM RNA, 5.5% native gel in 0.5X TBE at 4 C; crystals: 0.1 M Tris-HCl pH 8.7, 25% PEG 4000, 5-10 mM BaCl2, 20 C; settings: protein: recombinant; tags: His tag removed by TEV; N-terminal GRGS left; chain copies: 2; label: 5'-fluorescein
PUF60 RRMs = PUF60 RRMs (human, UniProt Q9UHX1 118-316, C129S;C255A); assay: as above; settings: protein: recombinant; tags: His tag removed by TEV; chain copies: 2; label: 5'-fluorescein
Chain of PUF60 RRMs (Q9UHX1 118-316 C129S/C255A): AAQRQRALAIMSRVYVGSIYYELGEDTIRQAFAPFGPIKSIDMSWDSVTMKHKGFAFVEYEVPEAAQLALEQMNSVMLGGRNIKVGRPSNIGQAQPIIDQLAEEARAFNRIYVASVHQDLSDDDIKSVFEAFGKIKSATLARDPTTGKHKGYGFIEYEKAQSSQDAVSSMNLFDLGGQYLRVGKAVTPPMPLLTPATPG

## GAUGUCAUACUUAUCCUGUCCCUUUUUUUU (ssRNA) [AdML3' RNA]
SF1 1-260
  binding result: binds
PUF60 RRMs+UHM [1]
  binding result: binds
PUF60 RRMs+UHM;SF1 1-260
  binding result: binds

## GAUGUCAUACUUAUCCUGUCCCUUUUUUUU (ssDNA, deoxyribose backbone with A, U, C, G bases (dU)) [*AdML3']
PUF60 RRMs+UHM [2]
  Kd: 4.61 ± 1.19 µM
PUF60 RRMs
  Kd: 3.64 ± 3.6 µM
